This test deals with cell-surface PDGF receptors (on rat stellate cells) (rat). Put plainly: cell-based or functional assay.

Substance “PDGF-D GFD dimer (from UniProt Q5RA73 250-370) (ligand)” yielded a luciferase reporter (SRE/STAT) RLU in rat stellate cell lysate at 0.3 ng/ml of 160 RLU, a luciferase reporter (SRE/STAT) RLU in rat stellate cell lysate at 1 ng/ml of 278 RLU, a luciferase reporter (SRE/STAT) RLU in rat stellate cell lysate at 3 ng/ml of 400 RLU and a luciferase reporter (SRE/STAT) RLU in rat stellate cell lysate at 10 ng/ml of 542 RLU. The luciferase reporter (SRE/STAT) RLU in rat stellate cell lysate at 30 ng/ml was 672 RLU, the luciferase reporter (SRE/STAT) RLU in rat stellate cell lysate at 100 ng/ml worked out at 826 RLU and the luciferase reporter (SRE/STAT) RLU in rat stellate cell lysate at 300 ng/ml came to 883 RLU.

For the origin of these results see patent US20030109000A1.
